{"source": "patent US20220089784A1", "about": "(University of California, published 2022)", "binders": {"B1": {"name": "6F9 IgG (antibody, V domains shown)", "VH": "QVQLQQPGAELVKPGASVKLSCKASGNSFASSWMHWVKQRPGQGLEWIGMIHPYSGSTNFNEKFKSKATLSVDKSSSTAYMQLSSLTSEDSAVYYCAMNWDWYFDVWGTGTTVTVSA", "VL": "DVVMTQSPKFMSTSVGDRVSITCKASQDVGTAVAWYQQKPGQSPKLLIYWASTRHTGVPDRFTGSGSGTDFTLTISDVLSEDLADYFCQQYGGYPTFGGGTKLEIK", "notes": "IgG from scFv V genes"}, "B2": {"name": "6F4 IgG (antibody, V domains shown)", "VH": "EVQLQESGPELVKPGASVKISCKTSGYTFTDYYMNWVKQSHGKSLEWIGDINPNNGGATYNQKFKGKATLTVDKSSRTLYMELRSLTSEDSAVYHCACGPYFFDFWGQGTTLTVSS", "VL": "QIVLTQSPATMSASPGEKVTITCSASSSVNYMHWYQQKPGSSPKLWIYDTSSLAPGVPARFSGSGSGTSYSLTISSMEAEDAASYFCHQWSSYPYTFGGGTKLEIK", "notes": "IgG from scFv V genes"}, "B3": {"name": "6F7 IgG (antibody, V domains shown)", "VH": "QVQLQESGPGLVKPSQTVSLTCTVAGYSITNGNHWWNWIRQVSGSKLEWIGYITSSGSTDSNPSLKSRISITRDTSKNQLFLQLNSVTTEDIATYYCARSSNYFFHVLDYWGQGTSVTVSS", "VL": "DIVLTQTPAIMSASPGEKVTMTCSASSSVSYMHWFQQKPGTSPKLWIYSTSNLASGVPARFSGSGSGTSYSLTISRMEAEDAATYYCQQRSSYPPTFGGGTRLEIK", "notes": "IgG from scFv V genes"}, "B4": {"name": "6F10 IgG (antibody, V domains shown)", "VH": "EVQLQESGGDLVKPGGSLKLSCAASGFTFSYYGMSWVRQTPDKRLEWVATISSGGTYTYYPDSVKGRFTISRDNAKNTLYLQMSSLSSEDTAMYYCARRRSYDSVYWYFDVWGAGTSVTVSS", "VL": "DIVLTQSPAITAASLGQKVTITCSASSSGSYIHWYQQKSGTSPKLLIYRTSNLASGVPSRFSGSGSGTFYSLTISSVEAEDAADYFCHQWSSYPTFGGGTKLEIK", "notes": "IgG from scFv V genes"}, "B5": {"name": "6F8 IgG (antibody, V domains shown)", "VH": "QVQLKQSGAELVKSGASVKLSCTASGFNIKDFYMHWVKQRTEQGLEWIGRIDPEDGETKYAPKFQGKATITADTSSNTAYLQLSSLTSEDTAVYYCVRDRDYDWGQGTTLTVSS", "VL": "not shown", "notes": "IgG from scFv V genes"}, "B6": {"name": "6F6 IgG (antibody, V domains shown)", "VH": "EVQLLESGGGLVKPGGSRKLSCEASGFTFSDYGMHWVRQAPEKGLEWVGYISSGSRIIYYADTVKGRITISRDNAKNTLFLQMTSLRSEDTAMYYCVRGTWVFDYWGQGTTLTVSS", "VL": "DIVMTQSPASLAVSLGQRATISCRASESVDNYGISFMNWFQQKPGQPPKLLIYAASNLESGIPARFSGSGSGTDFTLTINPVEADDVATYYCQQSNEDPYTFGGGTKLEIK", "notes": "IgG from scFv V genes"}, "B7": {"name": "4C3 scFv (scFv, V domains shown)", "VH": "EVQLVQSGAEVKKPGSSVKVSCKASGNSLNNYAITWVRQAPGQGLEWMGGINPLFGTANYAQKFQDRVTMTADESTNIAYLDLSSLTTADTAVYFCAVGAFTNYPFWGQGTTVTVSS", "VL": "SGLTQDPAVSEALGQTVRITCQGDSLRSYYASWYQQKPGQAPLLVIYAGNNRPSGIPDRFSGSSSGNTASLTITGARAEDEADYYCNSRDSSGNYLFGAGTKLTVL", "notes": "human"}, "B8": {"name": "87C78 scFv (scFv, V domains shown)", "VH": "QVQLQESGGGVVQPGKSLRLSCVTSTFTLGTYAMHWVRQAPGKGLQWVAVISYDGRYADYADSVKGRFNISRDNSKNTLYLQMHSLTTEDTALYYCAKAIKAFRPVPPSFHMDVWGIGTTVTVSS", "VL": "DIVMTQSPSSLSASVGDRVTITCRASQGISSYLAWYQQKPGKAPQLLIYKASILKSGVPSRFSGSGSGTEFTLTISSLQPEDFATYFCQQTFDTPLTFGQGTKVEIK", "notes": "human"}, "B9": {"name": "4C1 scFv (scFv, V domains shown)", "VH": "QVQLQESGPGLVKPSQTLSLTCAVSGGSINSGDYYWTWIRQHPGKGLEWIGNIYYTGRTYYNPSLQSRLTMSVDTSRTHFSLKLSAVTAADTAVYYCARGQDTSMVTRNFYYGLDVWGQGTTVTVSS", "VL": "DIVMTQSPSFVSASVGDRVTITCRASQGISSYLAWYQQKPGKAPKLLIYAASTLQSGVPSRFSGSGSGTDFTLTISSLQPEDIATYYCQELSSYPLTFGGGTKLEIK", "notes": "human"}}, "data": [{"target": "T1, BoNT/F1 (proteolytic BoNT/F) (Clostridium botulinum, UniProt A7GBG3 1-1278)", "T1 sequence": "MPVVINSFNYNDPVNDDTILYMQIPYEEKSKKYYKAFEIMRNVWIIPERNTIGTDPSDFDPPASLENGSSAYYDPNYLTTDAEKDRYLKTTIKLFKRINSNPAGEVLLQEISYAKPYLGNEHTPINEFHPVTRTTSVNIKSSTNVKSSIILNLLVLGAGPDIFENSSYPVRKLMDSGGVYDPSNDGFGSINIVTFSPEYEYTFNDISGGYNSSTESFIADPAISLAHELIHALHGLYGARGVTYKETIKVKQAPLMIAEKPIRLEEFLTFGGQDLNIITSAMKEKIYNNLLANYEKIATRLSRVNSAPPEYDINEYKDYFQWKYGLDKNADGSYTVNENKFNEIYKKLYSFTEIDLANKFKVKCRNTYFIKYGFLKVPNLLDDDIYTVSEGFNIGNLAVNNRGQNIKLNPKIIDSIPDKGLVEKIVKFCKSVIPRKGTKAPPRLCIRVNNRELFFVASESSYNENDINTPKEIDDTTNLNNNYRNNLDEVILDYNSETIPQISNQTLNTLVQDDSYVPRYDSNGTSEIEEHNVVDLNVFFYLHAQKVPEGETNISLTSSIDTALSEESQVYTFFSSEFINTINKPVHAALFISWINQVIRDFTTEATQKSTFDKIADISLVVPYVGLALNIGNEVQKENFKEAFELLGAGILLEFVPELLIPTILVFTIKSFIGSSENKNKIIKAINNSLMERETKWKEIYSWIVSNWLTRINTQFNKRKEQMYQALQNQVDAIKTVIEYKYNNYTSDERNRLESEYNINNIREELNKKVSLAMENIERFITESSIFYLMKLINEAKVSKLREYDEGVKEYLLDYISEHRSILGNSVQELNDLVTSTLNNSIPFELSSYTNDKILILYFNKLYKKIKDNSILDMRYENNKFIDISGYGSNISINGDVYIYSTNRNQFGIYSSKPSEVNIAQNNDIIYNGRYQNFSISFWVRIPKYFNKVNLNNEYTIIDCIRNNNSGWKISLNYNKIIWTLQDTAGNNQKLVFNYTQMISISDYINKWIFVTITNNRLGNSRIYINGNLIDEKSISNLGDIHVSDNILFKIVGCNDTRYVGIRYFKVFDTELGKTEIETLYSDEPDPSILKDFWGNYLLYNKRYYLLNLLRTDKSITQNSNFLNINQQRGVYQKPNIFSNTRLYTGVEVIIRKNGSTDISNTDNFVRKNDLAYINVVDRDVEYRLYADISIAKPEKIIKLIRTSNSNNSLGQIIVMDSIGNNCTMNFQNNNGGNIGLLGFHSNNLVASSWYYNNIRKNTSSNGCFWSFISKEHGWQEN", "experiment": "IgG", "units": {"Kd": "nM"}, "values": [{"binder": "B1", "Kd": 0.26}, {"binder": "B2", "Kd": 1.17}, {"binder": "B3", "Kd": 0.57}, {"binder": "B4", "Kd": 0.07}, {"binder": "B5", "Kd": 0.22}, {"binder": "B6", "Kd": 0.048}]}, {"target": "T2, BoNT/D (Clostridium botulinum, UniProt P19321 2-1276)", "T2 sequence": "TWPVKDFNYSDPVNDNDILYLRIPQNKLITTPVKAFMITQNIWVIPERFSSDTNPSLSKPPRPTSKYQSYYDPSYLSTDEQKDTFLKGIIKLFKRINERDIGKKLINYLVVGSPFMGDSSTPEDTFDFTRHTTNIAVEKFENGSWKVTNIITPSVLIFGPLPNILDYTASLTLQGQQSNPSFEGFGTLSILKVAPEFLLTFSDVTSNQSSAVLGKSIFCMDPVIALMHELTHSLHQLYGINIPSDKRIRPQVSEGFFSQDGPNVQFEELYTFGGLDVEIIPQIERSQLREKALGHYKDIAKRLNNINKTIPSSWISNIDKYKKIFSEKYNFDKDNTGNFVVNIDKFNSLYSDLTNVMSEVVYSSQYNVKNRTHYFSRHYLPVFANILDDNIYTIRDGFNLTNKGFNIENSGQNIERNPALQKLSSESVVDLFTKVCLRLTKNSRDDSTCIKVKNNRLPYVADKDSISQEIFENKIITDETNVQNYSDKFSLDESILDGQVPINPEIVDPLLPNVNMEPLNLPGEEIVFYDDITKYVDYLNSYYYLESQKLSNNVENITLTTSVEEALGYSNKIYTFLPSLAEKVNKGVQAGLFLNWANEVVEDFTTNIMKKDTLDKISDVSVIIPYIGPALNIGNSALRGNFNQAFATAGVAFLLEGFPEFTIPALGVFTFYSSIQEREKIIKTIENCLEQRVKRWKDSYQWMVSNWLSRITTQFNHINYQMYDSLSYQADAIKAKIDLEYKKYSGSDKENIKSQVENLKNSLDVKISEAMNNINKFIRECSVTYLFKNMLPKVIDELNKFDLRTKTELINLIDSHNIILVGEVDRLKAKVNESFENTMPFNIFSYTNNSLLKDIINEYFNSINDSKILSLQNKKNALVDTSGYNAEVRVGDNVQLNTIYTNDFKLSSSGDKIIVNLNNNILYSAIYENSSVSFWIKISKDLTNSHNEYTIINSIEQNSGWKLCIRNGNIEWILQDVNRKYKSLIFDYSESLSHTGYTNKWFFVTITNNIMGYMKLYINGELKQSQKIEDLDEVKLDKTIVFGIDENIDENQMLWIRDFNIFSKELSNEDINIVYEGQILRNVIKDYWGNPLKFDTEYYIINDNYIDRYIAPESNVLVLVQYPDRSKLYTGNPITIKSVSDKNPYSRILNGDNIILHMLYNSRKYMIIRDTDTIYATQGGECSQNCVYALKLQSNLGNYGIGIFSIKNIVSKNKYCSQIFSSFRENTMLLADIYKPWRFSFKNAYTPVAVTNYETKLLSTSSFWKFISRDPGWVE", "experiment": "yeast scFv FACS", "values": [{"binder": "B7", "binding result": "no binding (tested: ~1 µM)"}, {"binder": "B8", "binding result": "no binding (tested: ~1 µM)"}, {"binder": "B9", "binding result": "no binding (tested: ~1 µM)"}]}, {"target": "T3, BoNT/C1 holotoxin (Clostridium botulinum, UniProt P18640 2-1291)", "T3 sequence": "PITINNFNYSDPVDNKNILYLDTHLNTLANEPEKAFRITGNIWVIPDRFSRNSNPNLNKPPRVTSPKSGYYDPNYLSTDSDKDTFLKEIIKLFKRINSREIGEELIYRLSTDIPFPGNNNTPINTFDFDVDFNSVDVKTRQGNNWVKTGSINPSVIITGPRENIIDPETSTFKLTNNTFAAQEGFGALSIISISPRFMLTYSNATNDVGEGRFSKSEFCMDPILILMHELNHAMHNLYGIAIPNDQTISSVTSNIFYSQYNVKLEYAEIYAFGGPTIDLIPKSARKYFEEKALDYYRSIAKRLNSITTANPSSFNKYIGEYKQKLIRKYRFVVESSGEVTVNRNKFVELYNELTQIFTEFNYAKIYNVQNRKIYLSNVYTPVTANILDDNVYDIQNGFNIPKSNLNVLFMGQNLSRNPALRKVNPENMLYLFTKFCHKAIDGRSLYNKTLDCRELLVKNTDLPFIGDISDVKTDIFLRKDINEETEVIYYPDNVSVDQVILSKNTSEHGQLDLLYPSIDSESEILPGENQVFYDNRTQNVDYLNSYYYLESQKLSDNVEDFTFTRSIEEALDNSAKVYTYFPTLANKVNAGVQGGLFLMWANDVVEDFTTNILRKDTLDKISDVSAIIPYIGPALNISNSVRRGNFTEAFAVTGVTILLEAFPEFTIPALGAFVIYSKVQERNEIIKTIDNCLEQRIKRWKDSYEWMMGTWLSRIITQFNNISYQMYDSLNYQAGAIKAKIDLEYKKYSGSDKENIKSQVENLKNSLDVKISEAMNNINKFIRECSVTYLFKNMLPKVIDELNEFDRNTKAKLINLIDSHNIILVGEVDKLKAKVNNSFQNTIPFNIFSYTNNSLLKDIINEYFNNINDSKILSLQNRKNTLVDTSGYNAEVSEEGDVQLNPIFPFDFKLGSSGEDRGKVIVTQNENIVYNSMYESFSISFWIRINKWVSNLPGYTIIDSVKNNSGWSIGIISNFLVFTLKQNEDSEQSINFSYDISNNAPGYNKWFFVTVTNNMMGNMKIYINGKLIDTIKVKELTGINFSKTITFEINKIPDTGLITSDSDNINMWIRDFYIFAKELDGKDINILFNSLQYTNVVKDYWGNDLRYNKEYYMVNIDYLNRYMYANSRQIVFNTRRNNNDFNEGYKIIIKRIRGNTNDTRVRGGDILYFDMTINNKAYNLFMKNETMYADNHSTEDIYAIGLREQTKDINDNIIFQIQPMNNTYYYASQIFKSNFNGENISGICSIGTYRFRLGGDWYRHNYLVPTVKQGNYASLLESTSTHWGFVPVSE", "experiment": "yeast scFv FACS", "units": {"Kd": "nM"}, "values": [{"binder": "B7", "Kd": 4.7}, {"binder": "B8", "Kd": 1}, {"binder": "B9", "Kd": 2.7}]}]}
